In PMC4160017, “Poly(ADP‐ribose)‐mediated interplay of XPA and PARP1 leads to reciprocal regulation of protein function”:

Target: XPA (UniProt P23025 1-273)
Assay: EMSA; XPA pre-incubated with short PAR (16-20-mer), no effect on binding; EMSA: 25 mM Hepes-KOH pH 8.3, 30 mM KCl, 0.4 mM MgCl2, 1 mM EDTA, 10% glycerol, 45 ug/mL BSA, 0.9 mM DTT; 30 min; temperature not stated. Poly(ADP-ribose) overlay binding (XPA, H1, BSA, PBM peptides) not listed: PAR is not DNA/RNA
Conditions: protein: recombinant; tags: His-tag; label: biotin on the 19-mer; duplex of 19-mer and 25-mer with loop on one strand

XPA, sequence (P23025 whole entry): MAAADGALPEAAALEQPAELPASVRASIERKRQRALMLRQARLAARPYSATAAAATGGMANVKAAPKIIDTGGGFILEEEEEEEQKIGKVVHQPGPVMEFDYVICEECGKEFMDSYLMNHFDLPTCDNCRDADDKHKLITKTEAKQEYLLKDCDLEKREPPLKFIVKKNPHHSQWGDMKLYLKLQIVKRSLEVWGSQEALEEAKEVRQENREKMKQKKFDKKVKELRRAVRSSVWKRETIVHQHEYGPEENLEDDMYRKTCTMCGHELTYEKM

B1: loop-containing duplex (19-mer annealed with 25-mer) (dsDNA)
DNA 1: ACCACCCTTCGAACCACAC
DNA 2: GTGTGGTTCGCGCGCGAAGGGTGGT
B1: binds.
